This is an account of results in the DeepSol protein solubility set.

The data set can be described thus: soluble on expression in E. coli; label from the status in PepcDB or PDB records.
As for “MGRDSPRDRRHRDRSPERRRRSRSRSRDRQTRRDTRRDDSPKIKREVKEEQFSDNDSPRRRRDDRGGRRDDRRDNRRDDRRDHRDDRGDRDRRDNFRRPDPVREDGKQYGLEKKEENWGKPEEPAKEKEKVNLGTSGALTEDTNTFRGVVIKYNEPPEAKKPNARWRLYPFKGEESLQVLYIHRQSAYLIGRDHKIADIPVDHPSCSKQHAVLQFRSMPFTRDDGTKARRIMPYIIDLGSGNGTFLNEKKIEPQRYIELQEKDMLKFGFSTREYVVMKEREITEEELAEGEDVKKEESD”, the “soluble on expression in E. coli” value is given as “not soluble”.
As to “EWALFLDIDGTLVDIAEQPHDVRVAASLPQDLARLADRLGGALALVTGRRVDWIDAHFGPHLFPAAGLHGVERRRASGELDRAGLAPSLNALRKDLGRRTARMPGVLLEDKVAAVALHYRQAPEREPDVRAMMEMALKVMGDGWVLQHGKMVVELRPASANKGTALEAFLTEPPFAGRRPVAIGDDVTDEEMFRVVNACGGLSVRICETEAPTLARARLASPQALRDLVAELGA”, the “soluble on expression in E. coli” value is reported as “not soluble”.
In the case of “GMPPVWTLPRLYQHFQGAIDLELWTIPYYLTVLYSIKDPTTVPYRLIQAAVYQEMLHAQLVSNIANAYGYSPTLSAPEYVGTAVPHIDFDLDTPNPTSIFTPYSAELGPLDLTRVNTMCLIEYPEWRTQREPDLADDVTDYGSIGEFYDALRVGMEQLRGHVRGNQKQMDEFGPFYQNSPPLTVTESGDAGFLQALTLVDIIVDQGEGQTQPVETIPTEFQNTADGFQDAWPHFQRFDFIRRMPNWPGVYTGVTDPPAGSPGAEAQARLIADFAGFLDILNGMFSGGGAPPAFGVQMAKLGGDILSCWKLGAVPRYS”, the “soluble on expression in E. coli” value is “soluble”.
Consider “MGSDKIHHHHHHMKKYQRLAEQIREQIASGVWQPGDRLPSLREQVASSGMSFMTVGHAYQLLESQGRIIARPQSGYYVAPHPVCRSVATAAHVIRDEAVDINTYIFEMLQASRDTSVVPFASAFPDPRLFPLPQLNRSLAQVSKTATAMSVIENLPPGNAELRYAIARRYAQQGITVSPDEIVITAGALEALNLSLQAVTAPGDWVVVENPCFYGALQALERLRLKALSIPTDVKEGIDLMALEQALQEYPVKACWLMTNSQNPLGFTLSAEKKARLVALLTHHNVTLIEDDVYSELYFGREKPLPAKAWDRDDTVLHCSSFSKCLVPGFRIGWVAGGSHARQIQRLQLMSTLSTSSPMQLALVDYLSTRRYDAHLRRLRRQLAERKQQAWQTLLRHLPAEVKIHHNDSGYFLWLELPEQLDAGELSAKALEHLISIAPGKMFSTSGAWTRFFRFNTAWHWGEREEQAVKQLGSLIREMLSAKSLV”, for which the “soluble on expression in E. coli” value is reported as “not soluble”.
Take “MTGMSERERQVMKKLKEVVDKQRDEIRAKDRELGLKNEDVEALQQQQTRLMKINHDLRHRVTVVEAQGKALIEQKVELEADLQTKEQEMGSLRAELGKLRERLQGEHSQNGEEEPETEPVGEESISDAEKVAMDLKDPNRPRFTLQELRDVLHERNELKSKVFLLQEELAYYKSEEMEEENRIPQPPPIAHPRTSPQPESGIKRLFSFFSRDKKRLANTQRNVHIQESFGQWANTHRDDGYTEQGQEALQHL”: the “soluble on expression in E. coli” value is recorded as “not soluble”.
Regarding “MGSDKIHHHHHHMSSVTLSGRGTLGDRQVYRLGYGAMQLAGPGVFGPPKDPEEAVRVLQAAVEAGINHIDTSDFYGPHVTNQLIRKALHPYPDDLCIVTKVSARRDEKGNWLPAMSPAELTQAVEDNLRHLGLEVLEVVNLRSMLSPHGPVEGSLEAPLATLLELKERGLIRHIGLSNVTAKQVADAQKMTPIVCVQNLYNVAHRADDALVDALAAQHIAWVPFFPLGGFTPLQAQELNEVAASLEATPMQVALAWLLQRAPNILLIPGTSSRTHLAENIAAAELVLPAEALRTLDNIATAARR”, the “soluble on expression in E. coli” value is listed as “not soluble”.
Regarding “MAYQRIRQPKLSDVIEQELERLIVEGTLSPGQQLPPERELAKQFEVSRPSIREAIQRLEAKRLLTRRQGGGTFVSDRIWQSFSDPLLNLLSSHSETQLDLLEARHALEGICAYFAALRGTEEDFARIQHCVTRIAEAQALNNVDEEAERVMAFLIAITEAAHNVVLLHIVRSLSPLLEQNIRQNFKLLHRRPEAVEKVSKHRANIVDAIVSGQPEKAREMSHSHLAYIEETLLDLTREQTRRERSLRRIQQGNEPQ”, the “soluble on expression in E. coli” value is recorded as “soluble”.
For the sequence “MAHHHHHHMKLFCVGHRKVPIRVSPFDHPICVGCSSTLSFSSVLRKREYWNDMSTTNPLDVVLNMRLAVKELTNSAAASDKASEREKIKAKKALNKDNIEAARVYAENAIRKKDEGTSYLRLASRVDAAAERIQSAMQMHAMTRSLEKAICGISKVLHSLDPVQITTAMDAFERHVDTVAVNANAMDGTFERSRASAVPAAEVESFLEQITPDNEIDISEQIAVATNYLKKRPAATEVGDDVGITERMQRISIGAR”, the “soluble on expression in E. coli” value was “not soluble”.
As for “MGSDKIHHHHHHMREVFQRLKQAILEKQDTMLLTIGTSSGSTPRSQGARMLVSAEGRIAGTVGGGAVEFQAEQVAKKLVLEKENAQRQFILAPNNIADLGMVCGGNVTIFFHYLSWETPFLKELCESIETHFQNNQQGWLVTELDQNNLGKVSFYSETGELIGSTSWEGELSLLPKGIHCEQKEDIIFLTEAILQVGKVYIFGSGHVARALVPILNYLSFYCVVVDDRPEFLTAQAFPQAEELRVIPLENLAAFIEITADDYGIVITRGHNFDFIVAKQLLETPAKYIGVMGSKHKIASQVRRLKEVGYTMTEIERIFMPIGLDIAAETPEELAISIAGELIQQRYQ”, the “soluble on expression in E. coli” value is “not soluble”.
The same measure for “KEENNFINLYTVKNPLKCKIVDKINLVRPNSPNEVYHLEINHNGLFKYLEGHTCGIIPYYNELDNNPNNQINKDHNIINTTNHTNHNNIALSHIKKQRCARLYSISSSNNMENLSVAIKIHKYEQTENAPNITNYGYCSGFIKNLKINDDIYLTGAHGYFNLPNDAIQKNTNFIFIATGTGISPYISFLKKLFAYDKNNLYNRNSNYTGYITIYYGVYNEDSILYLNELEYFQKMYPNNINIHYVFSYKQNSDATSFYVQDEIYKRKTEFLNLFNNYKCELYICGLKSIRYKVMDILKSHDQFDEKKKKRVHVEVY”: “soluble”.
For “SNAMIIADNIKQFHSIRNSLIKQQKIGFVPTMGALHNGHISLIKKAKSENDVVIVSIFVNPTQFNNPNDYQTYPNQLQQDIQILASLDVDVLFNPSEKDIYPDGNLLRIEPKLEIANILEGKSRPGHFSGMLTVVLKLLQITKPNNLYLGEKDYQQVMLIKQLVKDFFINTKIIVCPTQRQPSGLPLSSRNKNLTSTDIEIANKIYEILRQDDFSNLEELTNKINSTGAKLQYIQKLNNRIFLAFYIGKVRLIDNFLKETGPSC”, the “soluble on expression in E. coli” value is listed as “soluble”.
Under “MNKNVMVKGLTALTILTILTSLGFAENISNQPHSIAKAEKNVKEITDATKEPYNSVVAFVGGTGVVVGKNTIVTNKHIAKSNDIFKNRVSAHHSSKGKGGGNYDVKDIVEYPGKEDLAIVHVHETSTEGLNFNKNVSYTKFADGAKVKDRISVIGYPKGAQTKYKMFESTGTINHISGTFMEFDAYAQPGNSGSPVLNSKHELIGILYAGSGKDESEKNFGVYFTPQLKEFIQNNIEK” stands “not soluble”.
Consider “MNDMRQITNLGRNIENKSFSIIDEEAGPHSFAQEEWEVVRRIIHATADFDYKNITKIHPQAIDSGIQALKKGCPIVCDVQMILSGLNPERLKVYGCKTYCFISDEDVIENAKRKNSTRAIESIQKANSFNLLNESIIVIGNAPTALLEIEKLIRQEGIKPALIVGVPVGFVSAKESKESILKLEYYNVTSIPYILTMGRKGGSTIAVAILHALLLLSSKRGERLEHHHHHH”, for which the “soluble on expression in E. coli” value is given as “soluble”.
The same measure for “MGSDKIHHHHHHMDLWKLYQPGTPAAIVAWGQLGTAHAKTTYGLLRHSRLFKPVCVVAEHEGKMASDFVKPVRYDVPVVSSVEKAKEMGAEVLIIGVSNPGGYLEEQIATLVKKALSLGMDVISGLHFKISQQTEFLKIAHENGTRIIDIRIPPLELDVLRGGIYRKKIKVVGVFGTDCVVGKRTTAVQLWERALEKGIKAGFLATGQTGILIGADAGYVIDAVPADFVSGVVEKAVLKLEKTGKEIVFVEGQGALRHPAYGQVTLGLLYGSNPDVVFLVHDPSRDHFESFPEIPKKPDFEEERRLIETLSNAKVIGGVSLNGGFETDLPVYDPFNTDDLDEMLERAMVW”: “soluble”.
The same measure for “MGSDKIHHHHHHMAALENKIDFAIAFAVNNANPNGDPLNGNRPRTTSEGLGEVSDVALKRKIRNRLQDAGESVFVQSDDRSDDGAKSLSDRFNTYLKTLPKDEQKQKNVVFGKVCERWLDVRSFGQVFAFKKAKDTDEVSIGVRGPVSIQPAFSINPIAIDDVQITKSVNSETTDSGKKSSDTMGMKYRVSGRAVYVTYGSISPQLAERTGFSAEDAEKIKEALVTLFENDESSARPSGSMEVLDVVWFAHNCKGGQYSSAKVHRSVSVDADGTVNVDDASIPGLRYEVIEGR”: “not soluble”; for “MGSSHHHHHHSSGLVPRGSHMYETYHSGWIECITGSMFSGKSEELIRRLRRGIYAKQKVVVFKPAIDDRYHKEKVVSHNGNAIEAINISKASEIMTHDLTNVDVIGIDEVQFFDDEIVSIVEKLSADGHRVIVAGLDMDFRGEPFEPMPKLMAVSEQVTKLQAVCAVCGSSSSRTQRLINGKPAKIDDPIILVGANESYEPRCRAHHIVAPSDNNKEEL”: “soluble”.
As for “MAHHHHHHMEPSTLPYITRDVATEPPTTIAIVSCGGQPPELSGKDETMFAVTEDCVEPTKGWINREGKPLLTVCFMHSFGKCVGRTSSNPATCFQIHIKANVLNALRKHYTNPTRRFFTRTVKAMLSPELRRLLCMRAHKEFKVQYLEYRVSDIFPSTGLLQYEAAYRRWLFSDDTNAEHAGTITVLQCLQFSMTGSCDSSTDCPYIHADLKKAQARDPMLARALRDVSDANQGLPTVSIRVPELLPAGHSSTICPADATYATLTDGANLQSGMPSDPARDFTKVPAFTLVYGEGESGGRCVPLQMHQRESSSSSAGGHANSTYPLSHVPFINQDDPASEMTAAKSQPTSGKNEKASVSGKSGSGWVNNSNEGAGSINNHTGSCGSGTD”, the “soluble on expression in E. coli” value is “not soluble”.
“MGWPFIGETISFFKPHRSDSIGTFLQQRVSRYGKVFKSNICGGKAVVSCDQELNMFILQNEGKLFTSDYPKAMHDILGKYSLLLATGEIHRKLKNVIISFINLTKSKPDFLHCAENLSISILKSWKNCREVEFHKEVKIFTLSVMVNQLLSIKPEDPARLYVLQDFLSYMKGFISLPIPLPGTGYTNAIKVRSNRNIHQNAIIEDMNNAIREEDFLDSIISNEDEEHAAIRAKKGDGELLNWEDYQKMEFTQCVISEALRCGNIVKTVHRKATHDIKFNEYVIPKGWKVFPIFTAVHLDPSLHENPFEFNPMRWTKTTAFGGGVRVCPGGELGKLQIAFFLHHLVLSYRWKIKSDEMPIAHPYVEFKRGMLLEIEPTKFLED”: the “soluble on expression in E. coli” value is “soluble”.
Turning to “MGSDKIHHHHHHMGQTTFSRQKDGQPDTAYHDSETTYHYSETTYNYAYLDESTKGMIRRAILKAIAIPGHQVPFGSREMPMPYGWGTGGIQITASIIGPNDTLKVIDQGSDDTTNAVSIRAFFRKVTNVPTTEKTSEATLIQTRHRIPETPLKEDQILVFQVPIPEPLRFIEPRETETCKMHALEEYGVMQVKLYEDIARFGHIATTYAYPVKVNHRYVMDPSPIPKFDNPKMDMMPALQLFGAGREKRVYAVPPYTVVESLDFDDHPFTIQQWDKPCELCGARDSFLDEVVMDDDGTRMFVCSDTDYCQLRQSQGEKTS”, the “soluble on expression in E. coli” value is reported as “not soluble”.
The same measure for “MAYWLVKSEPSVWSWDQQVAKGAAGEAWTGVRNHSAKLHMVAMRRGDRAFYYHSNEGKEIVGIAEIIREAYPDPTDASGKFVCVDIKADKPLKTPVTLAAVKAEPRLADMALMKYSRLSVQPVTAEEWKLVCKMGGLLEHHHHHH”: “not soluble”.
